Assay [1] addresses SARS-CoV-2 spike protein (on pseudovirus) (SARS-CoV-2, UniProt P0DTC2 14-1273). Briefly: cell-based or functional assay.
Assay [2] concerns the target T1, SARS-CoV-2 Receptor Binding Domain (RBD) protein (SARS-CoV-2, UniProt P0DTC2 319-541).
T1 construct: also called Sars-Cov-2 (COV2)
The experiment in a line: SPR (Carterra LSA); scFv captured by anti-V5, RBD as analyte.

The target of assay [3] is T1, SARS-CoV-2 Receptor Binding Domain …. The experiment in a line: SPR (Carterra LSA).

B1: COVID19_P01_H07 (scFv, V domains shown)
VH: QVQLVQSGAEVKKPGSSVKVSCKASGYSFNNYDLHWVRQAPGQGLEWMGGIIPIFDTANYAQKFQGRVTITADESTSTAYMELSSLRSEDTAVYYCALETVMGGMVKWGQGTLVTVSS
VL: SSYVLTQPPSVSVAPGKTARITCGGNNIGSKSVHWYQQKPGQAPVLVIYYDSDRPSGIPERFSGSNSGNTATLTISRIEAGDEADYYCQVWDSSGDYVFGGGTKLTVLA
For B1, in assay [1], the “IC50 [µg/mL] pseudotyped lenti neutralization” value amounted to 6.5 µg/mL. In assay [2], this molecule came in with an equilibrium dissociation constant (Kd) of 0.81 nM, a koff of 0.000401 s⁻¹ and an association rate constant (kon) of 496000 M⁻¹ s⁻¹.

B2: COVID19_P14_F05 (scFv, V domains shown)
VH: QVQLVQSGAEVKKPGSSVKVSCKASGNTFSMFAINWVRQAPGQGLEWVGVINPIGSTTTYAQKFQGRVTITADESTSTAYMELSSLRSEDTAVYYCARDTVMGGMDVWGQGTLVTVSS
VL: SSYVLTQPPSVSVAPGKTARITCGGNNIGSKSVHWYQQKPGQAPVLVIYYDSDRPSGIPERFSGSNSGNTATLTISRVEAGDEADYYCQVWVSSSDYVFGGGTKLTVLA
Regarding B2, in assay [3], the dissociation constant (Kd) was < 50 nM. In assay [2], this molecule had a Kd of 21.7 nM, a koff of 0.00152 s⁻¹ and a kon of 69900 M⁻¹ s⁻¹.

B3: COVID19_P14_F06 (scFv, V domains shown)
VH: QVQLVQSGAEVKKPGSSVKVSCKASGGTFSSFAIIWVRQAPGQGLEWMALINPSSGTTSYAQKFQGRVTITADESTSTAYMELSSLRSEDTAVYYCARETVMGGMDVWGQGTLVTVSS
VL: SSYVLTQPPSVSVAPGKTARITCGGNNIGSKSVHWYQQKPGQAPVLVIYYDSDRPSGIPERFSGSNSGNTATLTISRVEAGDEADYYCQVWDSSSHYVFGGGTKLTVLA
On to B3, for which the Kd in assay [3] was < 50 nM. In assay [2], this molecule came in with a Kd of 48.3 nM, a koff of 0.0024 s⁻¹ and an association rate constant (kon) of 49700 M⁻¹ s⁻¹.

B4: COVID19_P14_H10 (scFv, V domains shown)
VH: QVQLVQSGAEVKKPGSSVKVSCKASGGSFSRFPISWVRQAPGQGLEWMGGIIPIFGTANYAQRFQGRVTITADESTSTAYMELSSLRSEDTAVYYCALETVMGGLQVWGQGTLVTVSS
VL: SSYVLTQPPSVSVAPGKTARITCGGNNIGSKSVHWYQQKPGQAPVLVIYYDSDRPSGIPERFSGSNSGNTATLTISRVEAGDEADYYCQVWDSSSDYVFGGGTKLTVLA
For B4, in assay [3], the Kd was < 50 nM. In assay [2], the dissociation constant Kd was found to be 28.3 nM, the off-rate constant (koff) amounted to 0.01 s⁻¹ and the kon stood at 355000 M⁻¹ s⁻¹.

B5: COVID19_P14_F07 (scFv, V domains shown)
VH: QVQLVQSGAEVKKPGSSVKVSCKASGGTFSSYAISWMRQAPGQGLEWMGWINPNSGGTNYAQKFQGRVTITADESTSTAYMELSNLRSEDTAVYYCARDTYWGGMDVWGQGTLVTVSS
VL: SSYVLTQPPSVSVAPGKTARITCGGNNIGSKSVHWYQQKPGQAPVLVIYYDSDRPSGIPERFSGSNSGNTATLTISRVEAGDEADYYCQVWDSSSFYVFGGGTKLTVLA
For B5, the Kd in assay [3] is < 50 nM. In assay [2], this molecule yielded a Kd of 17 nM, a koff of 0.00245 s⁻¹ and a kon of 144000 M⁻¹ s⁻¹.

B6: COVID19_P01_H06 (scFv, V domains shown)
VH: QVQLVQSGAEVKKPGSSVKVSCKASGYTFTSYYMHWVRQAPGQGLEWMGLIDPSGGTTSYAQKFQGRVTITADESTSTAYMELSSLRSEDTAVYYCVWDTVMGGMDVWGQGTLVTVSS
VL: SYVLTQPPSVSVAPGKTAARITCGGNNIGSKSVHWYQQKPGQAPVLVIYKDGERPSGIPERFSGSNSRNTATLTISRVEAGDEADYYCQVWDSSSLYVFGGGTKLTVLA
Regarding B6, the “IC50 [µg/mL] pseudotyped lenti neutralization” value in assay [1] was 2.1 µg/mL. Besides, in assay [2], binding was put at a Kd of 1.31 nM, the dissociation rate constant (koff) stood at 0.000621 s⁻¹ and the kon was 474000 M⁻¹ s⁻¹.

The Kd is the free concentration of one partner at which half of the binding sites on the other are occupied at equilibrium, for simple one-to-one binding. Read a high Kd as weaker binding. One may read the koff as the rate constant with which the complex falls apart. Lower therefore signals slow dissociation. One may read the kon as the second-order rate constant of association. Higher therefore signals fast association.
